Test results as given in article PMC7831362 (mAbs, 2021).

Columns and labels:
[1] = molecular target: natively expressed mouse PD-L1 on mouse tumor cells (Mus musculus (endogenous in Renca cells), UniProt Q9EP73); assay: flow cytometry on cells
[2] = molecular target: recombinant mouse PD-L1–human Fc chimeric fusion protein (mouse, UniProt Q9EP73 19-239, conjugated with europium cryptate trisbipyridine–N-hydroxysuccinimide); assay: AlphaScreen or HTRF
Sequence of recombinant mouse PD-L1–human Fc chimeric fusion protein (Q9EP73 19-239, change not shown): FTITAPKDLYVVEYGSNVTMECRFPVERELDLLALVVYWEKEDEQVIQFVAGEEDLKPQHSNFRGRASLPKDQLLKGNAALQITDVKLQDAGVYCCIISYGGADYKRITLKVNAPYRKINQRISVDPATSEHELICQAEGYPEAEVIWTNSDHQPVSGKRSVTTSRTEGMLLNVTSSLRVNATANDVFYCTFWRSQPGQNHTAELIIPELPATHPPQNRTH

Sequence of natively expressed mouse PD-L1 on mouse tumor cells (Q9EP73 19-290): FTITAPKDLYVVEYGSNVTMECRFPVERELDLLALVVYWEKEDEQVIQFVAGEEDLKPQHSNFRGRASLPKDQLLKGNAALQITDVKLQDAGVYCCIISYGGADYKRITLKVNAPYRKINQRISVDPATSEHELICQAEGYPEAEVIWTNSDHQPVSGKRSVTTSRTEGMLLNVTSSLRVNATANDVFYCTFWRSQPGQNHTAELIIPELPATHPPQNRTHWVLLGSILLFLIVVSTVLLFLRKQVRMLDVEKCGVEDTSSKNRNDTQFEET

| Binder | binding result [1] | binding result [2] |
| --- | --- | --- |
| anti-mouse PD-L1 hybridoma clone 17 (antibody, V domains shown) VH: EVQLVESGGGLVQPGASLKLSCVASGFTFSDYWMSWVRQNPGKTMEWIGDIKYDGSYTDYAPSLKNRFTISRDNAKSTLYLQMSNVRSEDTATYYCTRATGRRDGYYPTDYFDYWGQGVMVTVSS VL: DIVLTQSPALAVSLGQRATISCWASQSVSISRYNLMHWYQQKPGQQPKLLIYRASNLAGIPPRFSGSGSGTDFTLTINPVQADDIATYYCQQSRESPNTFGAGTKLELK | binds | – |
| recombinant mouse B7-1/CD80 Fc chimera His-tag protein (Fc fusion, UniProt Q00609 38-246, looked up, conjugated with DyLight-650) VDEQLSKSVKDKVLLPCRYNSPHEDESEDRIYWQKHDKVVLSVIAGKLKVWPEYKNRTLYDNTTYSLIILGLVLSDRGTYSCVVQKKERGTYEVKHLALVKLSIKADFSTPNITESGNPSADTKRITCFASGGFPKPRFSWLENGRELPGINTTISQDPESELYTISSQLDFNTTRNHTIKCLIKYGDAHVSEDFTWEKPPEDPPDSKN | – | binds |
